# Assay results as given in IntAct's records for PubMed 23027862.
# B1: Beta-1,3-galactosyl-O-glycosyl-glycoprotein beta-1,6-N-acetylglucosaminyltransferase (Homo sapiens), Q02742 (parent)
# chain: MLRTLLRRRLFSYPTKYYFMVLVLSLITFSVLRIHQKPEFVSVRHLELAGENPSSDINCTKVLQGDVNEIQKVKLEILTVKFKKRPRWTPDDYINMTSDCSSFIKRRKYIVEPLSKEEAEFPIAYSIVVHHKIEMLDRLLRAIYMPQNFYCIHVDTKSEDSYLAAVMGIASCFSNVFVASRLESVVYASWSRVQADLNCMKDLYAMSANWKYLINLCGMDFPIKTNLEIVRKLKLLMGENNLETERMPSHKEERWKKRYEVVNGKLTNTGTVKMLPPLETPLFSGSAYFVVSREYVGYVLQNEKIQKLMEWAQDTYSPDEYLWATIQRIPEVPGSLPASHKYDLSDMQAVARFVKWQYFEGDVSKGAPYPPCDGVHVRSVCIFGAGDLNWMLRKHHLFANKFDVDVDLFAIQCLDEHLRHKALETLKH
# Variants of: B1
# Conditions: with golp3_human GOLPH3, Q9H4A6
# Sequence of golp3_human GOLPH3, Q9H4A6 (Q9H4A6 whole entry): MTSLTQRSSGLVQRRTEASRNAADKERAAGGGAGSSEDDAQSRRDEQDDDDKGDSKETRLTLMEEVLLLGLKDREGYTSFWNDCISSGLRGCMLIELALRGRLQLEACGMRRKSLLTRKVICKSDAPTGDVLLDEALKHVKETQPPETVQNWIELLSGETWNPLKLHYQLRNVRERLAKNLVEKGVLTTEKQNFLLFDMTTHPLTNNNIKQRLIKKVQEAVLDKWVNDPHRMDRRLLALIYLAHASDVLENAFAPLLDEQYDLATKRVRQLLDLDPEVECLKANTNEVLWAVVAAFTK
row,effect of a mutation on the interaction,Variant
1,disrupting interaction strength,MLRTAARRRLFSYPTKYYFMVLVLSLITFSVLRIHQKPEFVSVRHLELAGENPSSDINCTKVLQGDVNEIQKVKLEILTVKFKKRPRWTPDDYINMTSDCSSFIKRRKYIVEPLSKEEAEFPIAYSIVVHHKIEMLDRLLRAIYMPQNFYCIHVDTKSEDSYLAAVMGIASCFSNVFVASRLESVVYASWSRVQADLNCMKDLYAMSANWKYLINLCGMDFPIKTNLEIVRKLKLLMGENNLETERMPSHKEERWKKRYEVVNGKLTNTGTVKMLPPLETPLFSGSAYFVVSREYVGYVLQNEKIQKLMEWAQDTYSPDEYLWATIQRIPEVPGSLPASHKYDLSDMQAVARFVKWQYFEGDVSKGAPYPPCDGVHVRSVCIFGAGDLNWMLRKHHLFANKFDVDVDLFAIQCLDEHLRHKALETLKH [L5A;L6A]

# Variants of: B1
# Conditions: with golp3_human GOLPH3, Q9H4A6
# Remark: another data set of the same source
row,effect of a mutation on the interaction,Variant
1,disrupting interaction strength,MLRTLLAAALFSYPTKYYFMVLVLSLITFSVLRIHQKPEFVSVRHLELAGENPSSDINCTKVLQGDVNEIQKVKLEILTVKFKKRPRWTPDDYINMTSDCSSFIKRRKYIVEPLSKEEAEFPIAYSIVVHHKIEMLDRLLRAIYMPQNFYCIHVDTKSEDSYLAAVMGIASCFSNVFVASRLESVVYASWSRVQADLNCMKDLYAMSANWKYLINLCGMDFPIKTNLEIVRKLKLLMGENNLETERMPSHKEERWKKRYEVVNGKLTNTGTVKMLPPLETPLFSGSAYFVVSREYVGYVLQNEKIQKLMEWAQDTYSPDEYLWATIQRIPEVPGSLPASHKYDLSDMQAVARFVKWQYFEGDVSKGAPYPPCDGVHVRSVCIFGAGDLNWMLRKHHLFANKFDVDVDLFAIQCLDEHLRHKALETLKH [R7A;R8A;R9A]
